The results in this text go back to article PMC8368038 (The Journal of Biological Chemistry, 2021).

The term stoichiometry N denotes a count of units in the complex or per binding partner. As usually defined, the Kd is the equilibrium constant for the complex coming apart. A low value points to higher affinity.

To fix the notation:
B2: KANK1_ANKRD^SF (Trx-tagged) (domain or fragment, mouse, UniProt E9Q238 1081-1360, looked up)
chain: EPEKEEIRERYELSEKMLSACNLLKYNIKDPKALASKDMRICLNTLQHDWFRVSSQKSAVPAMVGDYIAAFEAVSPDVLRYIINMADGNGNTALHYSVFHSNFQIVKLLLDADVCNVDHQNKAGYTPIMLAALAAVEAEKDMQVVEELFSCGDVNAKASQAGQTALMLAVSHGRIDMVKGLLACGADVNIQDDEGSTALMCASEHGHVEIVKLLLAQPGCNGHLEDNDGSTALSIALEAGHKDIAVLLYAHLNFSKAQSPSTPRLGRKTSPGPTHRGSFD

For experiment [1], the target named is eIF4A1_NTD (residues 1-238, crystallised) (mouse, UniProt P60843 1-238). Put plainly: crystal structure.
Experiment [2] has as its target eukaryotic translation initiation factor 4A1 (eIF4A1), Trx-tagged (mouse, UniProt P60843 1-406). The experiment can be described thus: ITC. Background: ITC needs no label: the signal is the heat of the interaction.
The target of the next experiment is eIF4A1 Q148L (mouse, UniProt P60843 1-406, Q148L). Put plainly: ITC.
The target in experiment [3] is B2. Put plainly: SEC. Background: SEC sorts molecules by how far they enter the pores of the column.

B1: KANK1_ANKRD^SF (residues 1088-1338, crystallised) (domain or fragment, mouse, UniProt E9Q238 1088-1338, looked up)
chain: RERYELSEKMLSACNLLKYNIKDPKALASKDMRICLNTLQHDWFRVSSQKSAVPAMVGDYIAAFEAVSPDVLRYIINMADGNGNTALHYSVFHSNFQIVKLLLDADVCNVDHQNKAGYTPIMLAALAAVEAEKDMQVVEELFSCGDVNAKASQAGQTALMLAVSHGRIDMVKGLLACGADVNIQDDEGSTALMCASEHGHVEIVKLLLAQPGCNGHLEDNDGSTALSIALEAGHKDIAVLLYAHLNFSKAQ
As to B1, the “stoichiometry N” value in experiment [1] was 1.
As to B2, the binding result in experiment [2] is on record as “binds”. Also, binding in the experiment with eIF4A1 Q148L was put at a Kd of 1900 nM.

B3: eIF4A1 NTD (residues 1-237) (domain or fragment, mouse, UniProt P60843 1-237, looked up)
chain: MSASQDSRSRDNGPDGMEPEGVIESNWNEIVDSFDDMNLSESLLRGIYAYGFEKPSAIQQRAILPCIKGYDVIAQAQSGTGKTATFAISILQQIELDLKATQALVLAPTRELAQQIQKVVMALGDYMGASCHACIGGTNVRAEVQKLQMEAPHIIVGTPGRVFDMLNRRYLSPKYIKMFVLDEADEMLSRGFKDQIYDIFQKLNSNTQVVLLSATMPSDVLEVTKKFMRDPIRILVK
As for B3, the binding result in experiment [3] is listed as “binds”.
